Results taken from CN117050178A (BEIJING BIOSYSTEMS BIOLOGICAL TECH CO LTD, dated 2023).

Columns and labels:
[1] = target: 人源GM-CSF蛋白 (human, UniProt P04141 18-144); assay: indirect ELISA, cell supernatant on coated cytokine
[2] = target: 人源TNF-alpha蛋白 (human, UniProt P01375 77-233); assay: as above
[3] = target: 人源IL-2蛋白 (human, UniProt P60568 21-153); assay: as above
[4] = target: T1, 人源IL-4蛋白 (human, UniProt P05112 25-153); assay: as above
T1 sequence (looked up): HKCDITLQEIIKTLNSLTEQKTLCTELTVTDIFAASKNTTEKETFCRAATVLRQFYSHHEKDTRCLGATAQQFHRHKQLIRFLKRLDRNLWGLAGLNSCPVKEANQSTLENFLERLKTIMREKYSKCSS

[5] = target: 人源IL-6蛋白 (human, UniProt P05231 30-212); assay: as above
[6] = target: 人源IL-10蛋白 (human, UniProt P22301 19-178); assay: as above
Chain of 人源IL-10蛋白 (P22301 19-178 limits assumed): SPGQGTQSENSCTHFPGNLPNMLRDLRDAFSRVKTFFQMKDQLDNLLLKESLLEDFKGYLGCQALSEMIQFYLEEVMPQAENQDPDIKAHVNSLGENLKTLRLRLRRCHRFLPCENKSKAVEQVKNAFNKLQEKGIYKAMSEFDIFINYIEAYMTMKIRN

[7] = target: 人源IL-15蛋白 (human, UniProt P40933 49-162); assay: as above
Chain of 人源IL-15蛋白 (P40933 49-162 limits assumed): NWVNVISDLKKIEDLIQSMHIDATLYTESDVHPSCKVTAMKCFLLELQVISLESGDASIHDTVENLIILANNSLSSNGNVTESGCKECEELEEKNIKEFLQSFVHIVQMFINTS

[8] = target: 人源IL-21蛋白 (human, UniProt Q9HBE4 32-162, limits assumed); assay: as above
Chain of 人源IL-21蛋白 (Q9HBE4 32-162 limits assumed): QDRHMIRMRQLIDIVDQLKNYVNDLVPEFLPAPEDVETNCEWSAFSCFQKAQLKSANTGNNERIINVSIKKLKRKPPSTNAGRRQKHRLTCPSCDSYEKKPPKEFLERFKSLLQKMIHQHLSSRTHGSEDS

[9] = target: T2, 人IL-7蛋白 (human, UniProt P13232 26-177); assay: indirect ELISA, cell supernatant on coated human IL-7 (2 μg/mL)
T2 construct: also called 人源IL-7
T2 sequence (looked up): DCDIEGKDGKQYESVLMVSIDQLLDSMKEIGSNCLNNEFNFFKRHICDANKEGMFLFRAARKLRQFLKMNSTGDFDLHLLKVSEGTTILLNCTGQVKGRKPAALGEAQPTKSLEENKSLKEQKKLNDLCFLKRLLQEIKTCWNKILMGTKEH

Chain of 人源GM-CSF蛋白 (P04141 18-144 limits assumed): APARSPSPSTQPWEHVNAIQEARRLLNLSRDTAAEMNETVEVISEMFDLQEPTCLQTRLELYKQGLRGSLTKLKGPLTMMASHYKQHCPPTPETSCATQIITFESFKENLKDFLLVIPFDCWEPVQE
Chain of 人源IL-2蛋白 (P60568 21-153 limits assumed): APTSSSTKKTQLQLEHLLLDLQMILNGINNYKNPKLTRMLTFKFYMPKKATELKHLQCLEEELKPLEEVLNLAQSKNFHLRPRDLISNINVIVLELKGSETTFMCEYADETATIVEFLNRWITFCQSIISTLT
Chain of 人源TNF-alpha蛋白 (P01375 77-233 limits assumed): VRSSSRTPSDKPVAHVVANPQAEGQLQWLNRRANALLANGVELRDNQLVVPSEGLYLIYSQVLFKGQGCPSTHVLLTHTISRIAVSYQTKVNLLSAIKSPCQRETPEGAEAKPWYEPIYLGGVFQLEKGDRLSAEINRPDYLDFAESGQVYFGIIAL

binding result [9]: binds
B1: 抗体8E8B10 (antibody, V domains shown)
VH: QVQLQQPGAELLRPGASVKLSCKTSGFTFTRYWINWVKQRPGQGLEWIGMIDPFDSETHYNQVFKDKATLTVDKSSSTAYMYMSSLTSEDSAVYYCARYFVYFDTVDFWGQGTSLTVSS
VL: DVVMTQTPLSLPVSLGGQASISCRSGQSLVHSDGNTYLHWYLQRPGQSPKLLIYKVSNRFSGVPDRFSGSGSGTNFTLKISRVEAEDLGVYFCSQNTHVPYTFGGGTKLEMK
notes: Mouse hybridoma monoclonal antibody; also called Clone 8E8B10; 克隆号8E8B10
binding result [1]: no binding (tested: antigen coated at 2 μg/mL)
binding result [2]: no binding (tested: antigen coated at 2 μg/mL)
binding result [3]: no binding (tested: antigen coated at 2 μg/mL)
binding result [4]: no binding (tested: antigen coated at 2 μg/mL)
binding result [5]: no binding (tested: antigen coated at 2 μg/mL)
binding result [6]: no binding (tested: antigen coated at 2 μg/mL)
binding result [7]: no binding (tested: antigen coated at 2 μg/mL)
binding result [8]: no binding (tested: antigen coated at 2 μg/mL)
